Experimental data as given in patent US10786536B2, “Cardiac neural crest cells and methods of use thereof” (VESTION, INC., priority 2013, dated 2020).
Entries after “also recorded” stand apart in the source; their conditions may differ.

Assays:
Assay type in all cases: cell-based, mouse
[1] = tested on: EGFP^(+) cells (NCC^kit); test: neonatal cKit^CreERT2/IRG myocardial explant culture with or without MSC feeders, live-cell quantification of EGFP^(+) cells
Experimental: To study the mechanisms controlling migration and proliferation in postnatal cardiac NCC^kit clones, 2-day old cKit^CreERT2/IRG neonates administered a single subcutaneous injection of 50 μl of tamoxifen. The next day, 3-day old postnatal hearts (PN3) were harvested, washed in ice-cold HBSS and cleaned from unwanted tissues under a stereomicroscope. They were then transferred in a tissue-cultured hood and, after additional washing steps with DMEM under sterile conditions, were minced into ˜1 mm^3 fragments and digested in a solution of DMEM/F12, 20% FBS, 1% penicillin/streptomycin and 200 units/ml Collagenase-Type II solution at 37° C. Following that, tissue explants were collected and washed twice with DMEM. Single tissue fragments were then picked under a stereomicroscope using a pipette, and cultured individually in single wells of gelatin-coated 24-well plates, with or without 1×10^5 MSCs feeders. Samples were fed every other day. The basic myocardial explant feeding medium consisted of DMEM/F12, 15% FBS, 1% penicillin/streptomycin, 1% β-mercaptoethanol, 1000 units/ml recombinant mouse LIF, 1 ng/ml recombinant mouse bFGF, and 0.1 mM nonessential amino acids. The impact of SCF was tested by supplementing the medium with 100 ng/ml recombinant murine SCF. For cKit neutralization, 100 ng/ml of rat anti-murine cKit antibody were supplemented to the medium. For assessing the role of Sdf1/Cxcr4, AMD3100 was supplemented to the medium, at a final concentration of 1 μM. Samples were then monitored daily, and clonal growth of EGFP^(+) cells was quantified every other day for 5-8 consecutive days, under a fluorescent microscope.
Myocardial explants from these animals were collected the following day, and were cultured in the presence or absence of MSC feeders. Swine MSCs were isolated and expanded from a single, healthy Yorkshire donor as previously described. Briefly, bone marrow was obtained from the iliac crest, and aspirates were passed through a density gradient to eliminate undesired cell types and were plated with 25 ml MEM Alpha media containing 20% fetal Bovine Serum in 162 cm^2 culture flasks. At 5-7 days after plating, non-adherent cells were washed away during medium changes and the remaining, plastic adherent, purified MSC population was expanded in culture. All used cells were harvested when they reached 80-90% confluence at passage 3-4, and inactivated for 3 h at 37° C. with 10 μg/ml of mitomycin C. Inactivated porcine MSC feeders were collected by trypsinization and cryopreserved in liquid nitrogen until use. For all experiments, MSCs feeders were seeded at a concentration of 2×10^5 MSCs/ml a day before use. The responses of EGFP^(+) cells under different culture conditions were monitored daily and quantified via live-cell fluorescence imaging every other day.
The effect of MSCs on NCC^kit migration was explored because recent studies reveal a chemotactic role of Sdf1/Cxcr4 axis on NCCs. Myocardial explant cultures were generated, as described above, and screened the emergence of EGFP^(+) cells in response to AMD3100, an inhibitor of the Sdf1/Cxcr4 axis. […] Thus, Sdf1/Cxcr4 axis regulates migration and differentiation of NCC^kit.

[2] = tested on: iPSC^kit-derived embryoid bodies; test: in-vitro lineage tracing during cardiogenic differentiation of iPSC^kit-derived embryoid bodies pulsed with 4-OH tamoxifen
Excerpt: First, to specifically address the relationship between CNC^kit and the cKit^+/Nkx2.5^+ lineage purified from mouse ES and iPSCs-derived cardiac mesoderm, iPSCs from cKit^CreERT2/IRG adult tail-tip fibroblasts (iPSC^kit) were established. iPSC^kit stably express DsRed with no leakage of EGFP (<30 passages). As with the cKit^CreERT2/IRG mice DsRed is irreversibly replaced by EGFP in iPSC^kit-derivatives upon Cre-mediated recombination, which occurs in response to treatment with 4-OH tamoxifen. […] Thus, iPSC^kit are suitable for in-vitro lineage tracing of cKit-expressing cells. Cardiomyocyte differentiation was induced by treatment of iPSC^kit-derived embryoid bodies (EB) with ascorbic acid as previously described (FIG. 17). Successful differentiation was reflected in the development of spontaneously contracting cardiomyocytes. To genetically trace whether any of the generated cardiomyocytes were progeny of cKit^+ progenitors, EBs were pulsed with 4-OH tamoxifen at selected time-points during differentiation and monitored the emergence of spontaneously beating EGFP^+ derivatives (FIG. 17). Indeed, EGFP^+ derivatives were detected in ˜45% of the spontaneously beating EBs, confirming previous findings that mouse pluripotent stem cells can be consistently directed to generate cardiomyocytes via a cKit^+ cardiomyocyte progenitor lineage (data not shown). […]

[3] = tested on: iPSC^kit; test: quantitative gene-expression analysis during cardiogenic differentiation of iPSC^kit; conditions: noggin-treated iPSC^kit

Question: With c1cc(CN2CCCNCCNCCCNCC2)ccc1CN1CCCNCCNCCCNCC1 [AMD3100] as the molecule, how does the “differentiation of EGFP^(+) cells into spontaneously beating/contracting cells” value ([1]; AMD3100 1 μM, compared to non-AMD3100 treated groups) read?
Answer: massive differentiation into spontaneously contracting cardiomyocytes; also recorded: dramatic increase in the numbers of spontaneously beating EGFP^(+) cells

Question: What about the “migration of EGFP^(+) cells from the cultured explants” value ([1]; explants on MSC feeders) of the same molecule?
Answer: blocked the migration of EGFP^(+) cells; also recorded: blocking cell migration

Question: What about the “number / abundance of EGFP^(+) cells” value ([1]; explants on MSC feeders, compared to MSCs+SCF group, AMD3100 1 μM, anti-cKit antibody 100 ng/ml) of the same molecule?
Answer: significant reduction in the abundance of EGFP^(+) cells; also recorded: significantly decreased the number of EGFP^(+) cells

Question: For O=C1O[C@H]([C@@H](O)CO)C(O)=C1O [ascorbic acid], which “spontaneously beating EBs with EGFP^+ derivatives” value ([2]; cardiomyocyte differentiation induced by ascorbic acid) is on record?
Answer: ~45%

B1: SCF: recombinant murine SCF supplemented to the medium at 100 ng/ml (protein)
chain: KEICGNPVTDNVKDITKLVANLPNDYMITLNYVAGMDVLPSHCWLRDMVIQLSLSLTTLLDKFSNISEGLSNYSIIDKLGKIVDDLVLCMEENAPKNIKESPKRPETRSFTPEEFFSIFNRSIDAFKDFMVASDTSDCVLSSTLGPEKDSRVSVTKPFMLPPVA
Question: For B1, which “increase in proliferative capacity of EGFP^(+) cells” value ([1]; 100 ng/ml recombinant murine SCF, MSCs present) is on record?
Answer: 3.5 fold

Question: And the “proliferation of EGFP^(+) cells” value ([1]; SCF in the absence of MSCs)?
Answer: no significant differences were detected

Question: What about the “migration of EGFP^(+) cells from the cultured explants” value ([1]; explants on MSC feeders) of the same molecule?
Answer: neither SCF nor cKit affected EGFP^(+) cell migration

B2: noggin: BMP antagonist used for noggin-mediated antagonism of BMP signaling (protein, UniProt Q13253 28-232, looked up)
Noggin: QHYLHIRPAPSDNLPLVDLIEHPDPIFDPKEKDLNETLLRSLLGGHYDPGFMATSPPEDRPGGGGGAAGGAEDLAELDQLLRQRPSGAMPSEIKGLEFSEGLAQGKKQRLSKKLRRKLQMWLWSQTFCPVLYAWNDLGSRFWPRYVKVGSCFSKRSCSVPEGMVCKPSKSVHLTVLRWRCQRRGGQRCGWIPIQYPIISECKCSC
Question: Which “expression of the epicardial progenitor cell markers WT1 and Tbx18” value [3] does the source give for B2 here?
Answer: transiently repressed

Question: What about the “expression of cKit, Wnt1, Snai2, Pax3 and MITF-H” value ([3]; selected time-points) of the same molecule?
Answer: dramatic upregulation

Question: And the “generation of EGFP^+ cardiomyocytes” value ([2]; BMP antagonism of iPSC^kit, EBs pulsed with 4-OH tamoxifen)?
Answer: resulted in the generation of EGFP^+ cardiomyocytes
